1 molecule from patent publication US20120276104A1 (F STAR BIOTECHNOLOGISCHE FORSCHUNGS UND ENTWICKLUNGSGES M B …, published 2012) can be followed below.

The target in test [1] is T1, recombinant soluble HER-2 protein (human, UniProt P04626 23-652, limits assumed).
T1 construct: Described only as 'recombinant soluble HER-2 protein'; also called recombinant HER-2
The test can be described thus: SPR (Biacore), soluble HER-2 coated on CM-5 chip, Fcab injected at 0.8-25 ug/ml, 1:1 model; SPR, recombinant soluble HER-2 on the chip. The protocol: (§1) CM-5 chips are coated with increasing concentrations of recombinant soluble HER-2 protein. […] Then, buffer is injected to measure the off-rate of the binding reaction. The binding affinity (KD) is calculated using the BiaEval software using a 1:1 stochiometry model. […] Unbound Fcab is removed by two washing steps in FACS buffer. Cell bound Fcab is detected by incubation of the cells with polyclonal anti-human IgG antibodies coupled to phycoerythrin (SIGMA) for 30 minutes on ice as recommended by the manufacturer. Again, unbound detection antibodies are removed by two washing steps as above. Fcab binding is enumerated by flow cytometry by plotting the mean fluorescence intensity against the Fcab concentrations (FIG. 1, left panel).

For test [2], the target named is T2, HER-2 expressed on human tumor cells (human, UniProt P04626 23-1255).
T2 construct: whole, on cells; also called Her-2/neu; HER-2 on SKBR3, BT474 and HCC1954 cells
Briefly: flow cytometry on SKBR3 cells, detection with anti-human IgG-phycoerythrin, MFI against Fcab concentration; flow cytometry, HER-2 on SKBR3 cells. The protocol: as §1

B1: Fcab H561-4 (other)
chain: TCPPCPAPELLGGPSVFLFPPKPKDTLMISRTPEVTCVVVDVSHEDPEVKFNWYVDGVEVHNAKTKPREEQYNSTYRVVSVLTVLHQDWLNGKEYKCKVSNKALPAPIEKTISKAKGQPREPQVYTLPPSRDEFFTYWVSLTCLVKGFYPSDIAVEWESNGQPENNYKTTPPVLDSDGSFFLYSKLTVDRRRWTAGNVFSCSVMHEALHNHYTQKSLSLSPGK
notes: also called Her-2 specific Fcab clone H561-4
In the case of B1, in test [1], the Kd came out at 7.5 nM. The EC50 in test [2] was found to be 2 nM.
